Data from the supplement of paper PMC10724198.
± gives the standard deviation of the averaged measurements.

Legend:
Saccharomyces cerevisiae [1] = experiment: protein stability index of tFT-peptide fusion (C-terminal peptide) (PSI (0-1 scale)); higher = more stable (slower turnover); settings: genetic background: wild type; temperature: 30 C
Saccharomyces cerevisiae [2] = experiment: as above
Method: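 MPS profiling in S. cerevisiae of the tFT-X12 degron library: putative degron peptides plus stable controls, 12 aa, fused to the C-terminus of a sfGFP-mCherry timer. Cells are FACS-sorted into 8 mCherry/sfGFP bins and deep-sequenced. PSI runs from 0 (unstable) to 1 (stable). Backgrounds are wild type, das1Δ and doa10Δ at 30 °C, and wild type, das1Δ, cdc34-1 and cdc53-1 at 37 °C; 2-3 technical replicates each.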

[3] = genetic background: cdc34-1, temperature: 37 C
[4] = genetic background: cdc53-1, temperature: 37 C
[5] = genetic background: das1 deletion, temperature: 30 C
[6] = genetic background: das1 deletion, temperature: 37 C
[7] = genetic background: doa10 deletion, temperature: 30 C
[8] = genetic background: wild type, temperature: 30 C
[9] = genetic background: wild type, temperature: 37 C
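Note: PSI is a weighted mean of sequencing reads over stability bins, variants kept only with over 10 reads, mCherry proximal and sfGFP distal, peptide attached via GGGS linker.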

Row | Sequence | protein stability index (Saccharomyces cerevisiae [1]) | protein stability index (Saccharomyces cerevisiae [2]; [3]) | protein stability index (Saccharomyces cerevisiae [2]; [4]) | protein stability index (Saccharomyces cerevisiae [2]; [5]) | protein stability index (Saccharomyces cerevisiae [2]; [6]) | protein stability index (Saccharomyces cerevisiae [2]; [7]) | protein stability index (Saccharomyces cerevisiae [2]; [8]) | protein stability index (Saccharomyces cerevisiae [2]; [9])
1 | SCCIYVALCRWL | 0.382 ± 0.016 | 0.473 ± 0.024 | 0.573 ± 0.0093 | 0.43 ± 0.024 | 0.5601 ± 0.0013 | 0.323 ± 0.0071 | 0.353 ± 0.035 | 0.48 ± 0.0084
2 | SCGVYVVFVLVE | 0.286 ± 0.16 | 0.0658 ± 0.027 | 0.133 ± 0.047 | 0.16 ± 0.042 | 0.294 ± 0.006 | 0.128 ± 0.026 | 0.152 ± 0.022 | 0.246 ± 0.0014
3 | SCIVRTLVPCPS | 0.373 ± 0.022 | 0.377 ± 0.0049 | 0.419 ± 0.034 | 0.253 ± 0.04 | 0.4761 ± 0.0022 | 0.224 ± 0.016 | 0.27 ± 0.029 | 0.445 ± 0.0094
4 | SFCVLLQFCVLV | 0.0186 ± 0.026 | 0.412 ± 0.0095 | 0.432 ± 0.0084 | 0.351 ± 0.021 | 0.461 ± 0.011 | 0.336 ± 0.0041 | 0.3381 ± 0.0012 | 0.4258 ± 0.0029
5 | SFFCTRVLWVFQ | 0.157 ± 0.023 | 0.534 ± 0.017 | 0.612 ± 0.025 | 0.539 ± 0.022 | 0.6285 ± 0.0029 | 0.0925 ± 0.004 | 0.0846 ± 0.027 | 0.149 ± 0.029
6 | SFHTFFCPFFIL | 0.205 ± 0.024 | 0.53 ± 0.051 | 0.6678 ± 0.0037 | 0.645 ± 0.038 | 0.713 ± 0.032 | 0.189 ± 0.0043 | 0.168 ± 0.023 | 0.288 ± 0.022
7 | SGPNASRFYAPI | 0.696 ± 0.041 | 0.672 ± 0.04 | 0.733 ± 0.0081 | 0.634 ± 0.013 | 0.72486 ± 8.5e-06 | 0.657 ± 0.034 | 0.656 ± 0.037 | 0.704 ± 0.011
8 | SHPFIRSLVFLA | 0.103 ± 0.037 | 0.43 ± 0.015 | 0.6729 ± 0.0026 | 0.629 ± 0.008 | 0.721 ± 0.02 | 0.0816 ± 0.008 | 0.0711 ± 0.0057 | 0.0908 ± 0.014
9 | SHWSMQATLQLV | 0.469 ± 0.016 | 0.617 ± 0.046 | 0.694 ± 0.025 | 0.568 ± 0.021 | 0.6866 ± 0.0046 | 0.443 ± 0.034 | 0.468 ± 0.011 | 0.601 ± 0.012
10 | SIFFLVPLVFLS | 0.214 ± 0.043 | 0.4422 ± 0.0014 | 0.532 ± 0.027 | 0.408 ± 0.035 | 0.584 ± 0.015 | 0.134 ± 0.0055 | 0.141 ± 0.019 | 0.216 ± 0.055
11 | SIPVWTIELFAT | 0.469 ± 0.037 | 0.555 ± 0.022 | 0.627 ± 0.012 | 0.428 ± 0.026 | 0.6153 ± 0.0042 | 0.335 ± 0.022 | 0.368 ± 0.035 | 0.537 ± 0.039
12 | SLEACYCFVVLV | 0.2744 ± 0.00036 | 0.187 ± 0.0034 | 0.199 ± 0.0087 | 0.214 ± 0.028 | 0.291 ± 0.0068 | 0.175 ± 0.019 | 0.186 ± 0.023 | 0.25 ± 0.015
13 | SLFDQDCGGTVW | 0.764 ± 0.027 | 0.756 ± 0.034 | 0.78 ± 0.013 | 0.686 ± 0.016 | 0.784 ± 0.014 | 0.655 ± 0.014 | 0.6706 ± 0.0058 | 0.804 ± 0.016
14 | SLIFRVGKFKSL | 0.137 ± 0.021 | 0.5892 ± 0.0014 | 0.6968 ± 0.0048 | 0.654 ± 0.019 | 0.738 ± 0.012 | 0.0628 ± 0.011 | 0.0746 ± 0.017 | 0.101 ± 0.0098
15 | SLLLLSLCRFVG | 0.372 ± 0.026 | 0.626 ± 0.022 | 0.686 ± 0.017 | 0.6 ± 0.012 | 0.702 ± 0.023 | 0.194 ± 0.02 | 0.232 ± 0.036 | 0.384 ± 0.013
16 | SLPIFSGVASVR | 0.694 ± 0.022 | 0.677 ± 0.014 | 0.737 ± 0.033 | 0.64 ± 0.028 | 0.778 ± 0.0013 | 0.642 ± 0.043 | 0.649 ± 0.035 | 0.728 ± 0.011
17 | SLSCYSFFVLAL | 0.482 ± 0.0072 | 0.513 ± 0.035 | 0.543 ± 0.027 | 0.404 ± 0.03 | 0.534 ± 0.0054 | 0.391 ± 0.014 | 0.401 ± 0.025 | 0.51315 ± 0.00015
18 | SLVIVLPALIFL | 0.467 ± 0.035 | 0.463 ± 0.026 | 0.545 ± 0.013 | 0.393 ± 0.013 | 0.569 ± 0.014 | 0.408 ± 0.0052 | 0.401 ± 0.024 | 0.522 ± 0.014
19 | SPAIRAILAPAG | 0.445 ± 0.034 | 0.476 ± 0.059 | 0.504 ± 0.013 | 0.404 ± 0.021 | 0.546 ± 0.0073 | 0.402 ± 0.014 | 0.43 ± 0.036 | 0.532 ± 0.0079
